The labels stand for the following.
B1: FIXa variant Y155F/R318Y/R338E/E410N (protein)
chain 1: YNSGKLEEFVQGNLERECMEEKCSFEEAREVFENTERTTEFWKQYVDGDQCESNPCLNGGSCKDDINSYECWCPFGFEGKNCELDVTCNIKNGRCEQFCKNSADNKVVCSCTEGYRLAENQKSCEPAVPFPCGRVSVSQTSKLTR
chain 2: VVGGEDAKPGQFPWQVVLNGKVDAFCGGSIVNEKWIVTAAHCVETGVKITVVAGEHNIEETEHTEQKRNVIRIIPHHNYNAAINKYNHDIALLELDEPLVLNSYVTPICIADKEYTNIFLKFGSGYVSGWGRVFHKGYSALVLQYLRVPLVDRATCLESTKFTIYNNMFCAGFHEGGRDSCQGDSGGPHVTEVEGTSFLTGIISWGEECAMKGKYGIYTKVSRYVNWIKNKTKLT
B2: FIXa variant Y155F/R318Y/R403E/E410N (protein)
chain 1: B1 chain 1
chain 2: B1 chain 2 with E158R, R223E
B3: FIXa-D104N/K106S/Y155F/K247N/N249S/R318Y/R338E/R403E/E410N (protein)
chain 1: B1 chain 1 with D104N, K106S
chain 2: B1 chain 2 with K67N, N69S, R223E
B4: FIXa variant A103N/N105S/Y155F/R318Y/R338E/R403E/E410N (protein)
chain 1: B1 chain 1 with A103N, N105S
chain 2: B1 chain 2 with R223E
B5: FIXa variant A103N/N105S/R318Y/R338E/R403E/E410N (protein)
chain 1: B1 chain 1 with A103N, N105S
chain 2: B1 chain 2 with R223E
B6: FIXa variant K228N/R338E/R403E (protein)
chain 1: B1 chain 1
chain 2: B1 chain 2 with K48N, Y138R, R223E, N230E
B7: FIXa variant D203N/F205T/K228N (protein)
chain 1: B1 chain 1
chain 2: B1 chain 2 with D23N, F25T, K48N, Y138R, E158R, N230E
B8: FIXa variant D203N/F205T/R318Y (protein)
chain 1: B1 chain 1
chain 2: B1 chain 2 with D23N, F25T, E158R, N230E
B9: FIXa variant D104N/K106S/R318Y/R338E/E410N (protein)
chain 1: B1 chain 1 with D104N, K106S
chain 2: B1 chain 2
B10: FIXa variant D203N/F205T/E410N (protein)
chain 1: B1 chain 1
chain 2: B1 chain 2 with D23N, F25T, Y138R, E158R
B11: FIXa variant R318Y/R338E/R403E/E410N (protein)
chain 1: B1 chain 1
chain 2: B1 chain 2 with R223E
B12: FIXa variant R318Y/R403E/E410N (protein)
chain 1: B1 chain 1
chain 2: B1 chain 2 with E158R, R223E
B13: FIXa variant D104N/K106S/R318Y/R338E/R403E/E410N (protein)
chain 1: B1 chain 1 with D104N, K106S
chain 2: B1 chain 2 with R223E
B14: FIXa variant D203N/F205T/R318Y/E410N (protein)
chain 1: B1 chain 1
chain 2: B1 chain 2 with D23N, F25T, E158R
B15: FIXa variant D203N/F205T/R338E (protein)
chain 1: B1 chain 1
chain 2: B1 chain 2 with D23N, F25T, Y138R, N230E
B16: FIXa variant R318Y/R338E/E410N (protein)
chain 1: B1 chain 1
chain 2: B1 chain 2
B17: FIXa variant Y155F/R318Y/R338E/R403E (protein)
chain 1: B1 chain 1
chain 2: B1 chain 2 with R223E, N230E
B18: FIXa variant K228N/R318Y/E410N (protein)
chain 1: B1 chain 1
chain 2: B1 chain 2 with K48N, E158R
B19: FIXa variant D203N/F205T/R338A (protein)
chain 1: B1 chain 1
chain 2: B1 chain 2 with D23N, F25T, Y138R, E158A, N230E
B20: FIXa variant D104N/K106S/Y155F/R318Y/R338E/R403E/E410N (protein)
chain 1: B1 chain 1 with D104N, K106S
chain 2: B1 chain 2 with R223E
B21: FIXa variant D203N/F205T/R338E/R403E (protein)
chain 1: B1 chain 1
chain 2: B1 chain 2 with D23N, F25T, Y138R, R223E, N230E
B22: FIXa variant Y155F/R318Y/R338E/R403E/E410N (protein)
chain 1: B1 chain 1
chain 2: B1 chain 2 with R223E
B23: FIXa-Y155F/K247N/N249S/R318Y/R403E/E410N (protein)
chain 1: B1 chain 1
chain 2: B1 chain 2 with K67N, N69S, E158R, R223E
B24: FIXa-Y155F/K247N/N249S/R338E/R403E/E410N (protein)
chain 1: B1 chain 1
chain 2: B1 chain 2 with K67N, N69S, Y138R, R223E
B25: FIXa-K247N/N249S/R318Y/R403E/E410N (protein)
chain 1: B1 chain 1
chain 2: B1 chain 2 with K67N, N69S, E158R, R223E

Positions count from the first letter of the chain named. Numbers in names are those of the source.

For one series, the target named is Factor X (FX), P00742.
Factor X (FX), P00742, sequence (P00742 whole entry, looked up): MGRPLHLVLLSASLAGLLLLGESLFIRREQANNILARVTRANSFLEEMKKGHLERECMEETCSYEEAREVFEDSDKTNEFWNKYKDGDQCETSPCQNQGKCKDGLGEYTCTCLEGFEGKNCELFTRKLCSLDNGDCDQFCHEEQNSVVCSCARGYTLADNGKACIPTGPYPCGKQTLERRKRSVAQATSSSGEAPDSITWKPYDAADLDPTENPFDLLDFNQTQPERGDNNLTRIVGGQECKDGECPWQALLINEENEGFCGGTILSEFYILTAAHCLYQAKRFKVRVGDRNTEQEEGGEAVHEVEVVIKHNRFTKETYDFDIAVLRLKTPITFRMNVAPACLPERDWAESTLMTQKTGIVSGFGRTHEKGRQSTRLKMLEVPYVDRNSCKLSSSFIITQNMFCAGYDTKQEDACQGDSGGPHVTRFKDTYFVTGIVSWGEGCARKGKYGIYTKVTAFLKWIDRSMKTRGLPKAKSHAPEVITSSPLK
What is called kcat/KM is the second-order rate constant that governs catalysis at low substrate concentration. Take B1: the “% of WT kcat/KM” value came to 810% and the kcat/KM amounted to 3.7e+08 M⁻¹ s⁻¹.
Consider B2, for which the “% of WT kcat/KM” value is 78% and the kcat/KM turned out to be 3.6e+07 M⁻¹ s⁻¹.
On to B3, for which the “% of WT kcat/KM” value amounted to 292% and the kcat/KM turned out to be 1.3e+08 M⁻¹ s⁻¹.
Consider B4, for which the “% of WT kcat/KM” value is 274% and the kcat/KM stood at 1.3e+08 M⁻¹ s⁻¹.
Consider B5, for which the “% of WT kcat/KM” value was 318% and the kcat/KM amounted to 1.5e+08 M⁻¹ s⁻¹.
As to B6, the “% of WT kcat/KM” value is on record as 105% and the kcat/KM was found to be 4.8e+07 M⁻¹ s⁻¹.
In the same order, the values of B7 are 30% and 1.4e+07 M⁻¹ s⁻¹.
In the same order, the values of B8 are 44% and 2e+07 M⁻¹ s⁻¹.
B9: the “% of WT kcat/KM” value is 564% and the kcat/KM was determined as 2.6e+08 M⁻¹ s⁻¹.
On to B10, for which the “% of WT kcat/KM” value stood at 91% and the kcat/KM turned out to be 4.2e+07 M⁻¹ s⁻¹.
Consider B11, for which the “% of WT kcat/KM” value came out at 320% and the kcat/KM was determined as 1.5e+08 M⁻¹ s⁻¹.
The like results for B12 were, in that order, 54% and 2.5e+07 M⁻¹ s⁻¹.
B13: the “% of WT kcat/KM” value worked out at 366% and the kcat/KM amounted to 1.7e+08 M⁻¹ s⁻¹.
In the same order, the values of B14 are 85% and 3.9e+07 M⁻¹ s⁻¹.
Turning to B15, the “% of WT kcat/KM” value was 228% and the kcat/KM is 1e+08 M⁻¹ s⁻¹.
In the case of B16, the “% of WT kcat/KM” value was found to be 727% and the kcat/KM is 3.4e+08 M⁻¹ s⁻¹.
Take B17: the “% of WT kcat/KM” value turned out to be 189% and the kcat/KM was determined as 8.7e+07 M⁻¹ s⁻¹.
The like results for B18 were, in that order, 264% and 1.2e+08 M⁻¹ s⁻¹.
In the same order, the values of B19 are 135% and 6.2e+07 M⁻¹ s⁻¹.
The like results for B20 were, in that order, 382% and 1.8e+08 M⁻¹ s⁻¹.
For B21, the “% of WT kcat/KM” value is 41% and the kcat/KM is 1.9e+07 M⁻¹ s⁻¹.
With B22, the “% of WT kcat/KM” value is 406% and the kcat/KM amounted to 1.9e+08 M⁻¹ s⁻¹.

The next series deals with Factor X, P00742.
Factor X, P00742, sequence (P00742 whole entry, looked up): as above
Broadly, the kcat is the number of substrate molecules converted per active site and unit of time at saturation. B23: the “% of WT kcat/KM” value amounted to 22%, the turnover number (kcat) came out at 1.2 s⁻¹ and the kcat/KM came to 1e+07 M⁻¹ s⁻¹.
In the same order, the values of B24 are 229%, 5 s⁻¹ and 1.1e+08 M⁻¹ s⁻¹.
In the same order, the values of B25 are 58%, 2.9 s⁻¹ and 2.7e+07 M⁻¹ s⁻¹.

The record behind these values is patent US20210238260.
